Test results as given in article PMC5372246, “Co-production of hydrogen and ethanol from glucose in Escherichia coli by activation of pentose-phosphate pathway through deletion of phosphoglucose isomerase (pgi) and overexpression of glucose-6-phosphate dehydrogenase (zwf) and 6-phosphogluconate dehydrogenase (gnd)” (Biotechnology for Biofuels, 2017).

Tested on: T1, NC(=O)c1ccc[n+]([C@@H]2O[C@H](COP(=O)(O)OP(=O)(O)OC[C@H]3O[C@@H](n4cnc5c(N)ncnc54)[C@H](OP(=O)(O)O)[C@@H]3O)[C@@H](O)[C@H]2O)c1
T1 construct: full-length, C-terminal His-tag, Ni-NTA purified from E. coli, 55 kDa on SDS-PAGE
Experiment: purified protein
Format: biochemical, Escherichia coli
Conditions: co-substrate glucose-6-phosphate, general assay: Tris-HCl pH 7.5, 1 mM MgCl2, 30 °C

For “Zwf (ZE), glucose-6-phosphate dehydrogenase (Escherichia coli K-12)”, the Km was 15 µM.
